Data from the supplement of paper PMC9732359.
± gives the uncertainty stated by the source.

Test: protein stability index of a GFP-peptide fusion (yeast GPS) (PSI 1-4); higher = more stable; sorted into four equal gates, so the index is relative within each strain
Settings: doa10∆
Procedure, shortened: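 Plasmids isolated from each sorting gate were PCR-amplified and Illumina-sequenced, and barcodes assigned the reads to strains. The gates, four of equal size, were set by GFP/Cherry fluorescence ratio on mid-log cultures in leucine-free medium. These cultures were yeast carrying a pooled library of tiled 17-residue yeast protein peptides fused downstream of GFP on a plasmid that also expresses Cherry. The protein stability index is the sum of every gate's read frequency times its gate number.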

Sequence | protein stability index
MSGSFWTSTQRHHWQYT [SSN8] | 2.07 ± 0.14

Same assay, conditions: pdr5∆

Sequence | protein stability index
LRVEHIKHSKCRQEFLE [RPL21A] | 2.43 ± 0.16
LSATQFTQPALTLMEKA [FAS1] | 2.56 ± 0.058
LSCQYDNTVRTSANGIV [RPO31] | 1.26 ± 0.14
LSDRANKNQDAFEAELS [ARP9] | 3.13 ± 0.08
LSDRITGNFIIPSGNVW [PRP8] | 3.1 ± 0.087
LSGKFSTIPTRENGKGG [ROX3] | 3.22 ± 0.11
LSGNSVEDVSQNAADLQ [RPL9A] | 3.55 ± 0.15
LSHGSLEHVLLVPTASF [FAS1] | 1.4 ± 0.043
LSIKNSFIINFISNLPN [NUT1] | 1.81 ± 0.05
LSIQYMIQKVMEYLKSS [RPN5] | 1.56 ± 0.082
LSISVAAEPMDSKMIQD [SNU114] | 3.03 ± 0.081
LSKVAALSGNEGDASPF [RPB2] | 2.79 ± 0.052
LSKVFSDVLFEFTKINT [YJL039C/NUP192] | 2.5 ± 0.068
LSKVSLLTPDIGAVYSG [PRE8] | 1.99 ± 0.073
LSLHTGFIENCNGSALV [MTR3] | 3 ± 0.06
LSLTLNTHYHADYRLIL [SNF2] | 2.98 ± 0.08
LSNIEAQFLRSVVHPGE [RPO21] | 2.73 ± 0.21
LSNIPLLLITHHSWSQS [ARP9] | 1.6 ± 0.045
LSPPEFLFHAISGREGL [RPO31] | 1.79 ± 0.053
LSPSGHKTFLVANVKDL [RPL32] | 3.33 ± 0.26
LSQVYPTLVRSVISGNL [CSN12] | 2.92 ± 0.08
LSRNGKPVMEVTSSFFY [FAS1] | 2.99 ± 0.089
LSSAGKNSSVSSLMNGL [SRB5] | 1.24 ± 0.11
LSSLILKIFQEQSLEVF [SRB8] | 2.67 ± 0.12
LSTRAGGLGLNLQTADT [SNF2] | 2.7 ± 0.068

Sequence | protein stability index
LSYISALGMMTRISSQF [RET1] | 1.34 ± 0.057
LTATPNSINKTTVPFKE [POP1] | 2.44 ± 0.06
LTGSPNNPLVQKKNFLF [ARP7] | 2.89 ± 0.1
LTKAQKYLDQVLDHQRA [RPL17B] | 2.96 ± 0.092
LTKAQKYLEQVLDHQRA [RPL17A] | 2.73 ± 0.063
LTLIFYDVLHDVFTINP [YML103C/NUP188] | 2.09 ± 0.051
LTLMEKAAFEDLKSKGL [FAS1] | 3.29 ± 0.088
LTNMMSPMGNAYSMGAQ [PGD1] | 2.64 ± 0.077
LTNQLYKNHELLKLERK [SNF2] | 3.12 ± 0.059
LTRQPTEGRSRDGGLRL [RET1] | 2.14 ± 0.077
LTSNLSNYSRTMTISHL [YJL039C/NUP192] | 2.32 ± 0.061
LTSTKVKQLENVSSNIV [RPS20] | 2.16 ± 0.12
LTVFYAIKKFKTEKDGV [SSN3] | 1.74 ± 0.057
LVAKFLYPIFLLDDKKL [YJR042W/NUP85] | 1.29 ± 0.033
LVGSWKKDRATGDADEP [RPO21] | 3.55 ± 0.11
LVSNPHEIYGSMPLEQL [SRB4] | 2.26 ± 0.065
LVTAGVAAAGITASTLL [CYT1] | 1.76 ± 0.066
LWGPHGLNSDAEEVRNF [ECM29] | 3.59 ± 0.15
LWNLNAYRTDVIQALGG [PRP8] | 2.16 ± 0.05
LYAITFRKGLGNPLLYD [QCR2] | 1.32 ± 0.25
LYASDYASYFPYLLETY [RPN7] | 1.83 ± 0.086
LYEKLKQEIMMSDLFTF [ISW2] | 2.34 ± 0.063
LYFYRDPEEVEQQVAEE [RPS0A] | 3.31 ± 0.095
LYHHTTKTILSGTDGST [SRP72] | 2.82 ± 0.051
LYQSLTPQQLQMIQQRH [SNF5] | 2.24 ± 0.04

Sequence | protein stability index
LYVPHSENRFPGWDFET [RPL5] | 2.89 ± 0.069
MAAALPNPTPSMINSVS [PGD1] | 2.3 ± 0.061
MAATATDKIGRSVPAPG [FAS2] | 3 ± 0.076
MAGVKAYELRTKSKEQL [RPL35A] | 3.38 ± 0.1
MAPNTSRKQKIAKTFTV [RPL22A] | 2.03 ± 0.089
MAQENSMERKVQGAAPW [MCD1] | 2.92 ± 0.11
MAQTATQQQPGAPGANA [SRP54] | 3.22 ± 0.088
MARRPARCYRYQKNKPY [RPL10] | 2.13 ± 0.11
MARTKQTARKSTGGKAP [HHT1] | 3.25 ± 0.11
MASYMLNSFAFELCSLG [YJR042W/NUP85] | 1.51 ± 0.16
MATIASEYSSEASNTPI [PRE7] | 2.76 ± 0.14
MATNRADTLDPALLRPG [RPT3] | 3.31 ± 0.18
MCVSKGNASLKYIALQV [YCG1] | 2.02 ± 0.077
MDETQTRAKIGGLNDPR [RPO21] | 2.24 ± 0.11
MDKKILLNINGSRKVAG [SMX2] | 1.84 ± 0.066
MDMNEIEDKENSESTTQ [RPT5] | 3.25 ± 0.12
MDRDSESEEAETKDIRK [SRB4] | 3.13 ± 0.14
MDSKGKITIGIQRTTES [RGR1] | 3.39 ± 0.066
MEERDGAKFENIVHNFK [AAR2] | 2.51 ± 0.097
MEKDKLKNLLRSNFRVN [SNU114] | 2.45 ± 0.08
METRINILLRERDSYKL [YIL149C/MLP2] | 1.59 ± 0.11
MFNDLNSMDISMFSGLD [MED2] | 3.26 ± 0.054
MGMDLYKTSKAAQDVWN [FAS1] | 3.37 ± 0.16
MIAKEVKTSPDAKKCIA [FAS1] | 2.95 ± 0.28
MIDLGFEDQVTNILTKV [PRP28] | 3.67 ± 0.25

Sequence | protein stability index
MIIFLKNYDATDKPFSS [CSI1] | 2.85 ± 0.062
MIYDDAHEISQGVYGAV [BRR2] | 2.88 ± 0.051
MKDRLVEWNDQVEKLGK [RPN9] | 3.06 ± 0.1
MKIQAGQLGLDDNDVPG [YLR018C/POM34] | 3 ± 0.14
MKNKAETTTEEDSENPS [ITC1] | 3.27 ± 0.14
MKQPYVFVKKHHELIKV [SSN2] | 1.27 ± 0.051
MLETAGFSMNNPYNIVP [SMC3] | 3.18 ± 0.09
MLGIRSSVKTCFKPMSL [RIP1] | 3.05 ± 0.079
MLGRAGRPRYDTFGEGI [BRR2] | 2.81 ± 0.14
MLKYRRLFIGDQNNKKM [SNF2] | 2.82 ± 0.073
MLMPKQERNKIHQYLFQ [RPS10B] | 2.88 ± 0.17
MLNLIDDVKNILNAKYT [RPN6] | 2.57 ± 0.09
MMQDPQMQQMAKQFGMG [SRP54] | 2.93 ± 0.043
MMTRRVVMAMYNPKMID [RET1] | 3.37 ± 0.19
MMVSYPKIDEDDTWYNL [AAR2] | 3.34 ± 0.06
MNGNSTNNEQLQQELAT [NUT2] | 3.15 ± 0.075
MNRRKIAMPKRRMAFKP [YLR335W/NUP2] | 2.35 ± 0.14
MNTTLGSIGSRKYSFNY [YAR002W/NUP60] | 2.29 ± 0.066
MNTVPFTSAPIEVTIGI [AAR2] | 2.01 ± 0.12
MPFWKFFMKNFPFVLKV [SRB8] | 1.99 ± 0.11
MPGVSVRDVAAQDFINA [RPS19A] | 1.31 ± 0.12
MPKKRASNGRNKKGRGH [RPS26A] | 3.43 ± 0.19
MSANGFAADGDALVKRF [PRE7] | 3.4 ± 0.23
MSAVPSVQTFGKKKSAT [RPS16A] | 1.32 ± 0.15
MSDAVTIRTRKVISNPL [RPS24A] | 2.69 ± 0.13
